Target: HLA-A*02:01 (Homo sapiens, UniProt P04439, D140Y/D185E/D98H/E176V/E277Q/G131W/G231S/I119V/I121R/I166T/I218V/L300P/L318F/N151K/N90K/P208A/P217A/Q86G/Q94H/R138H/R169H/T345S)
Assay: MHC binding assay (UV-ligand exchange, ELISA of stabilized MHC complexes)
Conditions: MHC class I binding score; binding to HLA-A*02:01 ranged by peptide exchange yield (UV-ligand exchange, ELISA)
Excerpt: Candidate peptides for T cell based therapies according to the present invention were further tested for their MHC binding capacity (affinity). The individual peptide-MHC complexes were produced by UV-ligand exchange, where a UV-sensitive peptide is cleaved upon UV-irradiation, and exchanged with the peptide of interest as analyzed. Only peptide candidates that can effectively bind and stabilize the peptide-receptive MHC molecules prevent dissociation of the MHC complexes. To determine the yield of the exchange reaction, an ELISA was performed based on the detection of the light chain (β2m) of stabilized MHC complexes. The assay was performed as generally described in Rodenko et al. (Rodenko et al., 2006).
96 well MAXISorp plates (NUNC) were coated over night with 2 ug/ml streptavidin in PBS at room temperature, washed 4× and blocked for 1h at 37° C. in 2% BSA containing blocking buffer. […] Peptide-MHC monomers of the UV-exchange reaction were diluted 100 fold in blocking buffer. Samples were incubated for 1h at 37° C., washed four times, incubated with 2 ug/ml HRP conjugated anti-82m for 1h at 37° C., washed again and detected with TMB solution that is stopped with […]. Absorption was measured at 450 nm. Candidate peptides that show a high exchange yield (preferably higher than 50%, most preferred higher than 75%) are generally preferred for a generation and production of antibodies or fragments thereof, and/or T cell receptors or fragments thereof, as they show sufficient avidity to the MHC molecules and prevent dissociation of the MHC complexes.

Row | Substance | Peptide exchange
1 | 528 (SVAEGRALMSV; listed as Homo sapiens) [compound 528] | ″+++″ (≥50% = +++)
2 | 160 (FLFDEEIEQI; listed as Homo sapiens) [compound 160] | ″+++″ (≥50% = +++)
3 | 64 (YAAPGGLIGV; listed as Homo sapiens) [compound 64] | ″++″ (≥20% = ++)
4 | 395 (ALALGGIAVV; listed as Homo sapiens) [compound 395] | ″++++″ (≥75% = ++++)
5 | 189 (ALQRKLPYV; listed as Homo sapiens) [compound 189] | ″+++″ (≥50% = +++)
6 | 592 (RLLSAAENFL; listed as Homo sapiens) [compound 592] | ″+++″ (≥50% = +++)
7 | 582 (TLCDVILMV; listed as Homo sapiens) [compound 582] | ″+++″ (≥50% = +++)
8 | 200 (LLFGSVQEV; listed as Homo sapiens) [compound 200] | ″+++″ (≥50% = +++)
9 | 387 (ALFQATAEV; listed as Homo sapiens) [compound 387] | ″++++″ (≥75% = ++++)
10 | 551 (KLYESLLPFA; listed as Homo sapiens) [compound 551] | ″+++″ (≥50% = +++)
11 | 1 (SLMEPPAVLLL; listed as Homo sapiens) [compound 1] | ″+++″ (≥50% = +++)
12 | 455 (SLLKEPQKVQL; listed as Homo sapiens) [compound 455] | ″++″ (≥20% = ++)
13 | 538 (LLLAHIIAL; listed as Homo sapiens) [compound 538] | ″++″ (≥20% = ++)
14 | 121 (GVVDPRAISVL; listed as Homo sapiens) [compound 121] | ″++″ (≥20% = ++)
15 | 9 (GAAKDLPGV; listed as Homo sapiens) [compound 9] | ″++″ (≥20% = ++)
16 | 236 (GLLEAKVSL; listed as Homo sapiens) [compound 236] | ″+++″ (≥50% = +++)
17 | 92 (YLIPFTGIVGL; listed as Homo sapiens) [compound 92] | ″++″ (≥20% = ++)
18 | 609 (ALWKQLLEL; listed as Homo sapiens) [compound 609] | ″+++″ (≥50% = +++)
19 | 98 (LIIDQADIYL; listed as Homo sapiens) [compound 98] | ″+++″ (≥50% = +++)
20 | 131 (FVPPVTVFPSL; listed as Homo sapiens) [compound 131] | ″++″ (≥20% = ++)
21 | 557 (KLYDDMIRL; listed as Homo sapiens) [compound 557] | ″+++″ (≥50% = +++)
22 | 44 (ILDPISSGFLL; listed as Homo sapiens) [compound 44] | ″++″ (≥20% = ++)
23 | 317 (SLAALVVHV; listed as Homo sapiens) [compound 317] | ″+++″ (≥50% = +++)
24 | 586 (KLKPGDLVGV; listed as Homo sapiens) [compound 586] | ″+++″ (≥50% = +++)

Row | Substance | Peptide exchange
25 | 262 (LLWGDLIWL; listed as Homo sapiens) [compound 262] | ″+++″ (≥50% = +++)
26 | 279 (ALWGGTQPLL; listed as Homo sapiens) [compound 279] | ″++″ (≥20% = ++)
27 | 103 (TLAEEVVAL; listed as Homo sapiens) [compound 103] | ″+++″ (≥50% = +++)
28 | 466 (VLIANLEKL; listed as Homo sapiens) [compound 466] | ″++++″ (≥75% = ++++)
29 | 264 (SLQEQLHSV; listed as Homo sapiens) [compound 264] | ″+++″ (≥50% = +++)
30 | 256 (FLPPEHTIVYI; listed as Homo sapiens) [compound 256] | ″+++″ (≥50% = +++)
31 | 372 (TMLLNIPLV; listed as Homo sapiens) [compound 372] | ″++″ (≥20% = ++)
32 | 515 (LLQELVLFL; listed as Homo sapiens) [compound 515] | ″+++″ (≥50% = +++)
33 | 242 (AIAYILQGV; listed as Homo sapiens) [compound 242] | ″++″ (≥20% = ++)
34 | 365 (YVIDQGETDVYV; listed as Homo sapiens) [compound 365] | ″+++″ (≥50% = +++)
35 | 484 (SLIEKVTQL; listed as Homo sapiens) [compound 484] | ″+++″ (≥50% = +++)
36 | 134 (YLQELIFSV; listed as Homo sapiens) [compound 134] | ″+++″ (≥50% = +++)
37 | 224 (TLIDAQWVL; listed as Homo sapiens) [compound 224] | ″+++″ (≥50% = +++)
38 | 212 (ALWDQDNLSV; listed as Homo sapiens) [compound 212] | ″++″ (≥20% = ++)
39 | 7 (SLVGLLLYL; listed as Homo sapiens) [compound 7] | ″++++″ (≥75% = ++++)
40 | 616 (VLIDEVESL; listed as Homo sapiens) [compound 616] | ″+++″ (≥50% = +++)
41 | 172 (VLYSYTIITV; listed as Homo sapiens) [compound 172] | ″++″ (≥20% = ++)
42 | 124 (ALYETELADA; listed as Homo sapiens) [compound 124] | ″++″ (≥20% = ++)
43 | 246 (LLWEVVSQL; listed as Homo sapiens) [compound 246] | ″+++″ (≥50% = +++)
44 | 51 (LLPDLEFYV; listed as Homo sapiens) [compound 51] | ″++++″ (≥75% = ++++)
45 | 207 (GLTSTNAEV; listed as Homo sapiens) [compound 207] | ″++″ (≥20% = ++)
46 | 313 (VLFDDELLMV; listed as Homo sapiens) [compound 313] | ″+++″ (≥50% = +++)
47 | 198 (KTINKVPTV; listed as Homo sapiens) [compound 198] | ″+++″ (≥50% = +++)
48 | 184 (YLMDINGKMWL; listed as Homo sapiens) [compound 184] | ″+++″ (≥50% = +++)

Row | Substance | Peptide exchange
49 | 251 (ALYTGFSILV; listed as Homo sapiens) [compound 251] | ″++″ (≥20% = ++)
50 | 158 (KLFDVDEDGYI; listed as Homo sapiens) [compound 158] | ″+++″ (≥50% = +++)
51 | 77 (ILVEADGAWVV; listed as Homo sapiens) [compound 77] | ″++++″ (≥75% = ++++)
52 | 225 (SLLKVLPAL; listed as Homo sapiens) [compound 225] | ″+++″ (≥50% = +++)
53 | 400 (SLLTEQDLWTV; listed as Homo sapiens) [compound 400] | ″++″ (≥20% = ++)
54 | 391 (YVYPQRLNFV; listed as Homo sapiens) [compound 391] | ″+++″ (≥50% = +++)
55 | 34 (ILVEADSLWVV; listed as Homo sapiens) [compound 34] | ″+++″ (≥50% = +++)
56 | 359 (YLLPESVDL; listed as Homo sapiens) [compound 359] | ″+++″ (≥50% = +++)
57 | 344 (YLQDQHLLLTV; listed as Homo sapiens) [compound 344] | ″+++″ (≥50% = +++)
58 | 10 (FLATFPLAAV; listed as Homo sapiens) [compound 10] | ″++++″ (≥75% = ++++)
59 | 331 (KVDTVWVNV; listed as Homo sapiens) [compound 331] | ″+++″ (≥50% = +++)
60 | 434 (KVSNSGITRV; listed as Homo sapiens) [compound 434] | ″++″ (≥20% = ++)
61 | 310 (FLVDTPLARA; listed as Homo sapiens) [compound 310] | ″++++″ (≥75% = ++++)
62 | 454 (KLPPPPPQA; listed as Homo sapiens) [compound 454] | ″+++″ (≥50% = +++)
63 | 472 (KLLEVSDDPQV; listed as Homo sapiens) [compound 472] | ″+++″ (≥50% = +++)
64 | 111 (YVWGFYPAEV; listed as Homo sapiens) [compound 111] | ″+++″ (≥50% = +++)
65 | 350 (ALLDVTHSELTV; listed as Homo sapiens) [compound 350] | ″+++″ (≥50% = +++)
66 | 390 (ALFMKQIYL; listed as Homo sapiens) [compound 390] | ″+++″ (≥50% = +++)
67 | 263 (LLVSNLDFGV; listed as Homo sapiens) [compound 263] | ″+++″ (≥50% = +++)
68 | 427 (ALLPLSPYL; listed as Homo sapiens) [compound 427] | ″+++″ (≥50% = +++)
69 | 347 (SLFKHDPAAWEA; listed as Homo sapiens) [compound 347] | ″++++″ (≥75% = ++++)
70 | 450 (FMIDASVHPTL; listed as Homo sapiens) [compound 450] | ″+++″ (≥50% = +++)
71 | 179 (KVLNELYTV; listed as Homo sapiens) [compound 179] | ″+++″ (≥50% = +++)
